{"source": "patent US6790824B1", "about": "“Cytokines having neurotrophic activity” (Biopharm Gesellschaft zur biotechnologischen Entwicklung …, priority 1997, dated 2004)", "molecules": {"B1": {"name": "GDNF: rh GDNF, neurotrophic factor, member of the TGF-β superfamily (protein, UniProt P39905 78-211, looked up)", "Glial cell line-derived …": "SPDKQMAVLPRRERNRQAAAANPENSRGKGRRGQRGKNRGCVLTAIHLNVTDLGLGYETKEELIFRYCSGSCDAAETTYDKILKNLSRNRRLVSDKVGQACCRPIAFDDDLSFLDDNLVYHILRKHSAKRCGCI"}}, "key": {"[1]": {"test_system": "rat embryonic mesencephalic dopaminergic neurons (E14)", "experiment": "Survival of rat embryonic mesencephalic dopaminergic neurons, count of tyrosine hydroxylase (TH) immunoreactive neurons after 8 days", "assay_type": "cell-based", "settings": "GDNF 10 ng/ml, TGF-β3 2 ng/ml, 8 days in culture", "description": "FIG. 8 depicts the survival promoting effect of GDNF on rat embryonic mesencephalic dopaminergic neurons (E14) is dependent on the presence of TGF-β. Dissociated cultures were treated with GDNF (10 ng/ml), with GDNF in the presence of anti-TGF-β1, -β2, -β3 (10 μg/ml), with TGF-β3 (2 ng/ml) or without any growth factor added (control) for 8 days in culture. Numbers of dopaminergic neurons were determined by counting the numbers of tyrosine hydroxylase (TH) immunoreactive neurons."}, "[2]": {"test_system": "preganglionic neurons to the adrenal medulla", "experiment": "Preganglionic neuron protection in vivo after adrenomedullectomy", "set-up": "species or system rat", "settings": "adult rats, 1 μg GDNF in gelfoam into the medullectomized adrenal gland, four weeks", "description": "This type of target deprivation causes the death of all preganglionic neurons to the adrenal medulla at four weeks, as previously shown by Blottner and Baumgarten (Exp. Neurol. 118 (1992) 35-46).\nAdrenomedullectomy was performed on adult male Hanover-Wistar rats. Preganglionic neurons in the spinal cord innervating adrenal medullary chomaffin cells were identified by retrograde tracing with Fast Blue or Fluoro-Gold (FG). Factors (1 μg each) were soaked in gelfoam (Spongostan, Ferrosan, Soeburg, Denmark) prior to implantation into unilaterally medullectomized adrenal glands. Numbers of FG-labeled preganglionic neurons were determined by cell counts of complete series of longitudinal sections through spinal cord segments T7-T10 four weeks post-surgery. Only brightly fluorescent neurons containing a clearly visible nucleus were counted. Total numbers were corrected for possible double counts of split nuclei according to Abercombie's formula. Numbers of preganglionic neurons to the adrenal medulla surviving in sham-operated animals and on the unlesioned side were set as 100%. Data are given as mean values±SEM and the statistical significance of intergroup differences was determined by Student's t-test."}, "[3]": {"test_system": "embryonic chicken dorsal root ganglia (DRG) neurons", "experiment": "Survival of dissociated embryonic chick dorsal root ganglia (DRG) neurons, 48 h, counting of surviving neurons", "assay_type": "cell-based", "settings": "E8, 10% horse serum, saturating GDNF; compared with NGF in serum-free medium"}, "[4]": {"test_system": "chick sympathetic ganglionic (SG) neurons", "experiment": "Survival of embryonic chick sympathetic ganglionic (SG) neurons, 72 h, counting of surviving neurons", "assay_type": "cell-based", "description": "(§1) Embryonic chick ciliary (CG), dorsal root (DRG), and sympathetic (SG) ganglia at embryonic day(s) (E) 8, 10, and 12, were dissected, freed from nerve roots and connective tissue and collected in CME. Ganglia were incubated in trypsin (ICN), washed and dissociated by trituration using fire-polished Pasteur pipettes. Cultures were set up in 96-well microtiter plates (Costar, A/2), precoated with poly-L-ornithine and laminin at a density of 1,200-1,500 cells/well in DMEM supplemented with N1 additives, 0.25% BSA, and 0.1% PSN (DME/N1) and incubated at 37° C. in a 5% CO2 incubator.\n(§2) At appropriate times (CG: 24 h, DRG: 48 h, SG: 72 h) cultures were fixed by addition of 2.5% glutardialdehyde in phosphate buffered saline (PBS). Numbers of surviving neurons were determined by direct counting of 30% of the surface area using phase contrast microscopy."}, "[5]": {"test_system": "embryonic chicken dorsal root ganglia (DRG) neurons", "experiment": "Survival of dissociated embryonic chick dorsal root ganglia (DRG) neurons, 48 h, counting of surviving neurons", "assay_type": "cell-based", "description": "Dissociated cultures of embryonic chicken dorsal root ganglia (DRG) were generated as described in details by Krieglstein and Unsicker (Neurochem. Res., 21(7) (1996) 843-850). Briefly, DRGs from white Leghorn chick embryos (day 8) were dissected in Ca^2+-Mg^2+ free Hanks' balanced salt solution. After incubation in 0.08% trypsin for 15 min ganglia were dissociated by trituration. Cells were seeded in polyomithin-laminin coated 96-well microtiter plates (A/2 Costar) at a density of 1,200 cells/well. Growth factors were applied at the time of plating in a final volume of […] Dulbecco's Modified Eagle's Medium supplemented with 0.25% bovine serum albumin, N1 additives and 100 U/ml penicillin. As a positive control, nerve growth factor (NGF) was used at the saturating concentration of 5 ng/ml. After 48 h of incubation at 37° C. in a humidified atmosphere containing 5% CO2, cultures were fixed with 2.5% glutaraldehyde. Neuronal cells were identified by their phase-bright and neurite-bearing morphologies and counted within 30% of the total surface area using phase contrast microscopy. In the first set of experiments we tested the survival promoting effect of several growth factors of the bone morphogenetic protein family.\nas §1, §2\nDissociated cultures of embryonic chicken dorsal root ganglia (DRGs) were generated as described in details by Krieglstein and Unsicker (Dev. Brain. Rees. 93 (1996) 10-17). Briefly, DRGs were dissected in Ca^2+-Mg^2+ free Hank's balanced salt solution (CMF). After incubation in 0.08% trypsin (BioWhittaker) for 15 min, ganglia were dissociated by gentle trituration using fire-polished Pasteur pipettes. Cells in suspension (neuron/non-neuron ratio 1:2) were seeded in polyomithin-laminin coated 96-well microtiter plates (A/2 Costar) at a density of 1,200 cells/well. Growth factors were applied at the time of plating in a final volume of 50 μl Dulbecco's Modified Eagle's Medium supplemented with 0.25% bovine serum albumin, N1 additives (Bottenstein et al., Exp. Cell Res. 125 (1980) 183-190) and 100 U/ml penicillin. As a positive control, nerve growth factor (NGF) was used at the saturating concentration of 10 ng/ml. After 48 h of incubation at 37° C. in a humidified atmosphere containing 5% CO2, cultures were fixed with 2.5% glutaraldehyde in phosphate buffered saline (PBS). Neuronal cells were identified by their phase-bright and neurite-bearing morphologies and counted within 30% of the total surface area using phase contrast microscopy. All experiments were performed in at least triplicate in two independent experiments. Data are presented as mean±SEM. Statistical comparisons were made with student's double t-test, ANOVA and MicrocalOrigin software. Differences were considered statistically significant at *P<0.05, **P<0.01, **P<0.001."}, "[6]": {"test_system": "chick ciliary ganglionic (CG) neurons", "experiment": "Survival of embryonic chick ciliary ganglionic (CG) neurons, 24 h, counting of surviving neurons", "assay_type": "cell-based", "description": "as §1, §2\nPhosphatidylinositol-specific phospholipase C (PIPLC) is an enzyme that specifically cleaves glycosyl-phosphatidylinositol (GPI) linkages. Embryonic chick ciliary ganglionic neurons (E8) were isolated and seeded as described before. Neurons were incubated for 1 h at 37° C. with 1) 100 mU PIPLC or II) 100 mU PIPLC+2 ng/ml TGFβ or III) without enzyme and then growth factors were added. The number of surviving neurons was determined 24 h later."}, "[7]": {"settings": "E8, serum-free, factor added by itself"}}}
{"molecule": "B1", "values": [{"measurement": "survival of dopaminergic neurons relative to untreated control cultures", "setting": "[1]", "value": 160, "unit": "%"}, {"measurement": "protection of preganglionic neurons after adrenomedullectomy", "setting": "[2]", "value": "fully protected the neurons"}, {"measurement": "DRG neuron survival with GDNF in serum containing medium", "setting": "[3]", "value": "levels identical to those achieved by addition of the respective neurotrophic factor"}, {"measurement": "SG neuron survival with GDNF in serum containing medium", "setting": "[4]; E8, 10% horse serum, saturating GDNF, compared with NGF in serum-free medium", "value": "levels identical to those achieved by addition of the respective neurotrophic factor"}, {"measurement": "SG neuron survival, single factor in serum-free medium", "setting": "[4]; [7]", "value": "virtually no survival promoting effect"}, {"measurement": "DRG neuron survival, single factor in serum-free medium", "setting": "[5]; [7]", "value": "virtually no survival promoting effect"}, {"measurement": "effect on DRG neuron survival when added together with GDF-5", "setting": "[5]; factor at saturating concentration plus GDF-5 20 ng/ml, E8, 48 h", "value": "synergistic or additive effects"}, {"measurement": "CG neuron survival with GDNF supplemented with 10% horse serum", "setting": "[6]; E8, 24 h, compared with CNTF 5 ng/ml", "value": "as effectively as a saturating concentration of CNTF"}, {"measurement": "EC50 of the synergistic survival effect", "setting": "[6]; factor titrated in combination with 2 ng/ml of the other factor (GDNF/TGF-β), serum-free", "value": 0.06, "unit": "ng/mL"}, {"measurement": "CG neuron survival, single factor in fully-defined medium", "setting": "[6]; serum-free, each at the saturating amount of 2 ng/ml", "value": "only marginal survival promoting effects"}]}
